Measurements as given in article PMC2667185.

Biological target: Mus musculus XRCC2 full length (Mus musculus) (UniProt Q9CX47)
Test: two-hybrid; same mated yeast; liquid β-galactosidase assay with ONPG as substrate, in triplicate, constructs in both the GAL4 activating and DNA binding domains

UniProt Q9CX47, sequence (Q9CX47 whole entry, the tested form may be a part): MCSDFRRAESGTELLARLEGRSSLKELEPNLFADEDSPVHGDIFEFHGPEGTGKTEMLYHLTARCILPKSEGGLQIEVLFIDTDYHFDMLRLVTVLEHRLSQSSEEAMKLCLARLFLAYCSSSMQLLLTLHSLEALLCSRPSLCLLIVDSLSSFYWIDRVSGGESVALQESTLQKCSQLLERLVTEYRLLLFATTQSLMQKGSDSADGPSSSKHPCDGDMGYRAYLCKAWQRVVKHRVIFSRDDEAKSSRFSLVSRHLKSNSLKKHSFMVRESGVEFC

- percent of the level of full-length RAD51D (β-galactosidase activity): 36%
Substance: Mus musculus RAD51DΔ8 (splice variant product, exon 8 excluded) (from UniProt O55230 4-223) (natural protein)
